According to patent US9631002B2, “Methods and compositions for producing active vitamin K-dependent proteins” (The University of North Carolina at Chapel Hill, priority 2010, dated 2017):
Changes are numbered by the printed parent chain. Numbers in names are those of the source. Where two headings read alike, the source gives them in different places.

Key:
[1] = system: FIXgla-PC carboxylation in HEK 293 cells; type: cell-based, human; settings: for inhibition of FIXgla-PC carboxylation by 2 μM warfarin: 5 μM KO as substrate
[2] = system: FIXgla-PC carboxylation in AV12 cells
[3] = system: carboxylation of FIXgla-PC reporter protein in HEK293 cells (reduction of KO to vitamin K); assay: Cell-based VKOR activity assay: recombinant VKOR/VKORH expressed in FIXgla-PC/HEK293 cells with KO and warfarin, carboxylated reporter by ELISA; parameters: species or system human; settings: for ability of human VKOR with replaced residues 122-139 to use KO to carboxylate the reporter / activity in the in vivo assay / support of carboxylation of the reporter protein with KO as substrate: 5 μM KO; for ability of human VKOR with replaced residues 122-139 to use KO to carboxylate the reporter: 2 μM warfarin, 48 h, HEK293 (FIG. 11C); for activity in the in vivo assay: cysteine mutants of VKOR-Y139F; for support of carboxylation of the reporter protein with KO as substrate: 48 h (FIG. 15B); for activity relative to MT-VKORH: KO as substrate, FIXgla-PC/HEK293 (FIG. 21B)
[4] = system: carboxylation of FIXgla-PC reporter protein in AV12 cells (reduction of vitamin K to KH2); assay: Cell-based VKOR activity assay in FIXgla-PC/AV12 or FIXgla-PC/VKOR-Y139F/AV12 cells, carboxylated reporter by ELISA; parameters: species or system Syrian golden hamster; settings: for ability of human VKOR with replaced residues 122-139 to use vitamin K to carboxylate the reporter: 11 μM K, 2 μM warfarin, 48 h, FIXgla-PC AV-12 (FIG. 11B); for activity in reducing vitamin K to KH2 to support carboxylation: transient expression in FIXgla-PC/VKOR-Y139F/AV12, KO and warfarin (FIG. 19A); for ability to reduce vitamin K to KH2 compared with MT-VKORH: FIXgla-PC/VKOR-Y139F/AV12 (FIG. 21C)
[5] = previous in vitro results; cited from earlier work

CC1=C(C/C=C(\C)CCC[C@H](C)CCC[C@H](C)CCCC(C)C)C(=O)c2ccccc2C1=O [vitamin K, Vitamin K1]
increase in secretion of carboxylated reporter protein compared to no additions ([1]; 11 μM vitamin K or 5 μM KO, HEK293): approximately 25 fold
vitamin K concentration at which carboxylation occurred maximally ([1]; absence of warfarin, HEK293, 48 h): 1 µM
vitamin K concentration at which maximal carboxylation was detected ([1]; presence of 2 μM warfarin, HEK293, 48 h): 22 µM
vitamin K concentration at which maximum carboxylation of FIXgla-PC occurs ([2]; AV12 cells): 2.5 µM

CC(=O)CC(c1ccccc1)c1c(O)c2ccccc2oc1=O (stereo not shown) [warfarin]
carboxylated reporter protein detected in the medium in the presence of warfarin ([1]; 1 μM vitamin K, 2 μM warfarin, HEK293): less than 20%
carboxylation of reporter protein by endogenous VKOR at 4 μM warfarin ([1]; 4 μM warfarin, HEK293): completely abolished
inhibition of FIXgla-PC carboxylation by 2 μM warfarin ([1]; 2 μM warfarin, HEK293): completely inhibited
inhibition of FIXgla-PC carboxylation by 2 μM warfarin ([1]; 2 μM warfarin, HEK293, listed as Warfarin): eliminated KO-supported carboxylation
levels of carboxylated protein in the presence of warfarin, cells fed vitamin K ([1]; 11 μM vitamin K as substrate, HEK293): unaffected
IC50 ([1]; Homo sapiens, KO (5 μM) as substrate, 48 h, HEK293, read-out: warfarin concentration giving 50% inhibition of FIXgla-PC carboxylation): 100 nM
effect of warfarin on reporter protein carboxylation ([2]; AV12 stably over expressing VKOR-Y139F, 5 μM KO, 2 μM warfarin): abolished reporter protein carboxylation
inhibition of production of carboxylated reporter protein by warfarin ([2]; vitamin K as substrate, AV12): significantly inhibited
residual activity ([2]; vitamin K as substrate, warfarin, AV12 (FIG. 4A)): ~20%

O=c1oc2ccccc2c(O)c1Cc1c(O)c2ccccc2oc1=O [dicoumarol]
reporter protein carboxylated ([1]; 20 μM dicoumarol, HEK293, vitamin K): 60%
inhibition of reporter protein carboxylation by dicoumarol ([1]; KO as vitamin K source, HEK293): significantly inhibited
inhibition of reporter protein carboxylation by dicoumarol ([1]; cells fed vitamin K, HEK293): only minimal inhibition
decrease of carboxylation of the reporter protein ([1]; vitamin K as substrate, dicoumarol): ~20%
inhibition of reporter protein carboxylation by dicoumarol ([2]; vitamin K present, AV12): completely inhibited

B1: hVKOR Arabidopsis: human VKOR with residues 122-139 replaced by Arabidopsis VKOR 185-202, SEQ ID NO:30 (protein)
chain: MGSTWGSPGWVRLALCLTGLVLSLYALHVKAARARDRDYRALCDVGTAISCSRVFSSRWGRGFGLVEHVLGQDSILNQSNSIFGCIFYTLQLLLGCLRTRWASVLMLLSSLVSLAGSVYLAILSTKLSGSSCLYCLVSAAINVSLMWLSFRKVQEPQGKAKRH
modifications: Human VKOR with amino acids 122-139 substituted with amino acids 185-202 of A. thaliana VKOR (RefSeq accession no. NP_567988)
ability of human VKOR with replaced residues 122-139 to use KO to carboxylate the reporter [3]: only the human VKOR substituted with the M. tuberculosis domain functions as a VKOR
ability of human VKOR with replaced residues 122-139 to use vitamin K to carboxylate the reporter [4]: can utilize vitamin K to produce carboxylated reporter protein

B2: hVKOR DsbB: human VKOR with residues 122-139 replaced by bacterial DsbB 33-50, SEQ ID NO:32 (protein)
chain: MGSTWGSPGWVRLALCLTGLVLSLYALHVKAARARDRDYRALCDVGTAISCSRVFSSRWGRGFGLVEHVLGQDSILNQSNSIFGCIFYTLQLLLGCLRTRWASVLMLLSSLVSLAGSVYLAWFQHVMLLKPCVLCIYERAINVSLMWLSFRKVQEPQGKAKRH
modifications: Human VKOR with amino acids 122-139 substituted with amino acids 33-50 of DsbB enzyme (RefSeq accession no. ZP_03067529)
ability of human VKOR with replaced residues 122-139 to use KO to carboxylate the reporter [3]: only the human VKOR substituted with the M. tuberculosis domain functions as a VKOR
ability of human VKOR with replaced residues 122-139 to use vitamin K to carboxylate the reporter [4]: can utilize vitamin K to produce carboxylated reporter protein

B3: C43A: warfarin resistant human VKOR (Y139F) with C43 mutated to alanine (protein, UniProt Q9BQB6 1-163, looked up, variant C43A)
Vitamin K epoxide reductase …: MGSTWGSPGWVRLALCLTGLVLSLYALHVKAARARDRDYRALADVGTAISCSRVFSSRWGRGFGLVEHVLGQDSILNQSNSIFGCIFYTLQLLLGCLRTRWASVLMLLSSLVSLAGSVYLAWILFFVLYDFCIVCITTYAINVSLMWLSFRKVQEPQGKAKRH
carboxylation of reporter protein by human VKOR cysteine mutants ([3]; Y139F background, 4 μM warfarin, HEK293 (FIG. 13)): dramatically decreased activity
activity in the in vivo assay ([3]; 4 μM warfarin (FIGS. 17A-B)): ~5%
activity in the in vitro assay [5]: ~30%

B4: AR-VKORH: Arabidopsis VKORH, NP_567988.1, SEQ ID NO:19 (protein, listed as Arabidopsis thaliana)
chain: MMARFVSVSSCQFHFGFREVSPPSVTSYPRRFEVSDRRFPAIPIKCSSSEPENGEDSAPSLSSSSSSSTSEVSTSNSSTYNWYTGIGGIGMLDTAYLTYLKVTGSDAFCPIGGGTCGDVLNSDYAVVFGVPLPVIGFVMYGVVTALSAELGEGNLPFGISKSNGRFALFGITTAMASASAYFLYILSTKLSGSSCLYCLVSAFLSFSLFFLSVKDVKLQEIQQVVGLQICLAIIVVASLTASYSTAQPIPSRSGDIELPYFRTEISSSSSPYAIALAKHLNSIGAKMYGAFWCSHCLEQKEMFGREAAKELNYVECFPDGYKKGTKILKACADAAIEGFPTWIINDKVLS
support of carboxylation of the reporter protein with KO as substrate ([3]; 4 μM warfarin): only MT-VKORH supported carboxylation
activity in reducing vitamin K to KH2 to support carboxylation [4]: no significant activity

B5: RO-VKORH: Roseiflexus sp. RS-1 VKORH, SEQ ID NO:20 (protein)
chain: MRRFLLTLIVSCMLTLSLSVASAAATVRAVLFYSPRCGHCHMVISEHLPPLQQRYGDQLQILMIDVDQAQGAALYREAIAVYAIPEARRGVPTMIISDTVLVGSVEIPQRLPGLIETLLARGGSDWPPIPGLADLLATVPTSAPAPPTLPPATAETPPFLRDLPANALAVVVLAGMLLTVMWAGITWSRPAQPPTRWRDRSIPLLAIGGMAVAAYLTFIETTGAPALCGPVGDCNAVQQSEFARLFGTIPVGAAGVAGYGAILIVWIVAHLLPGTSGERAALLLPALALIGTLFSIYLTFLEPFVIGATCLWCLTSAVIMTGLLWLSMPYRQRSTSRGYARR
modifications: Roseiflexus sp. RS-1
support of carboxylation of the reporter protein with KO as substrate ([3]; 4 μM warfarin): only MT-VKORH supported carboxylation
activity in reducing vitamin K to KH2 to support carboxylation [4]: significant activity

B6: SY-VKORH: Synechococcus sp. VKORH, SEQ ID NO:21 (protein)
chain: MASYLKLKAQEETWLQRHSRLILAILAGLGSLLTAYLTYTKLTEQPAAFCTGDGGCDLVLSSRWAEFLGIPTAAVGLLGFLGVLALAVLPDGLPLVKRWRWPALFGLVSAMTAFEMYMLYLMVAVLRQFCMYCTTAIILVAGLGLVTVLGHRWLDGGKLAFSYILVAFLTLVTTIGVYANQVPPPSPLAVGLAAHLRQIGGTMYGAYWCPHCQDQKELFGAAFDQVPYVECSPNGPGTPQAQECTEAGITSYPTWIINGRTYTGVRSLEALAVASGYPLEEGR
modifications: Synechococcus sp. JA-2-3B′a(2-13)
support of carboxylation of the reporter protein with KO as substrate ([3]; 4 μM warfarin): only MT-VKORH supported carboxylation
activity in reducing vitamin K to KH2 to support carboxylation [4]: no significant activity

B7: C16A: warfarin resistant human VKOR (Y139F) with C16 mutated to alanine (protein, UniProt Q9BQB6 1-163, looked up, variant C16A)
Vitamin K epoxide reductase …: B3 Vitamin K epoxide reductase … with C16A, A43C
activity in the in vivo assay ([3]; 4 μM warfarin (FIG. 17A)): no effect on activity
activity in the in vitro assay [5]: ~40%

B8: SA-VKORH: Salinispora tropica CNB-440 VKORH, SEQ ID NO:24 (protein)
chain: MTTTANRPVTTPAERHFLAAVTAWVLTIGGAVGLLAAAALTVEKINLLADPGYVPTCSINPILSCGSVMNTPQAAVFGFPNPLLGIAGFAVVTTLGVTLLATGHLPRWMWLGLQGGVTFGVVFVHWLIYQSLYVIGALCPYCMVVWAVTIPIFLYTTLQTLRDNTTALPRALRRVTERVARYHSLVLVVWAAFVVVVILHRFWDYWSTLG
modifications: Salinispora tropica CNB-440
activity relative to MT-VKORH [3]: 30%
ability to reduce vitamin K to KH2 compared with MT-VKORH [4]: higher than the KO to vitamin K reduction

B9: CO-VKORH: Corynebacterium jeikeium K411 VKORH, SEQ ID NO:23 (protein, listed as Corynebacterium jeikeium)
chain: MWVWWGREGVSNKESEHMNGLGATKRFGYTFLVLSTIGLIFSALIMHDKVQMALDPNFEPACTFNEVISCTDVMASDQAATFGFANPFIGMIGFPVMMTLAVMLIVGAKLPRWIWYCALAGLAFGVAFVHWLAYSAIYSIGALCPYCMAVWAATLPMFVMTLVHIQREKRREAGEDVAHSALGMPLVVIIAWFLAFTALILDQFVF
activity relative to MT-VKORH [3]: 70%
ability to reduce vitamin K to KH2 compared with MT-VKORH [4]: higher than the KO to vitamin K reduction
